Measurements: the Human Domainome abundance scans (Beltran et al. 2025)
± gives the uncertainty stated by the source.

B1: Chromodomain-helicase-DNA-binding protein 4, residues 623 to 675; numbered along this chain, Q14839 (parent)
chain: MIHRILNHSVDKKGHVHYLIKWRDLPYDQASWESEDVEIQDYDLFKQSYWNHR

Variants of: B1
Assay: abundance fitness (aPCA) (normalised: wild type 0, dead -1); higher = more abundant; growth selection in yeast, the domain comes from the species named
Conditions: Homo sapiens
With S48P the abundance fitness was -0.628 ± 0.13.
Work on S48H yielded an abundance fitness of 0.119 ± 0.12.
V37M showed an abundance fitness of 0.171 ± 0.11.
V37E showed an abundance fitness of -0.039 ± 0.16.
In the case of V37L, the abundance fitness is reported as -0.058 ± 0.075.
In the case of V37T, the abundance fitness is reported as -0.001 ± 0.083.
V37D gave an abundance fitness of -0.262 ± 0.1.
Work on V37Y yielded an abundance fitness of -0.361 ± 0.1.
Variant V37I has an abundance fitness of -0.217 ± 0.089.
In the case of K21I, the abundance fitness is reported as -0.581 ± 0.16.
Work on K21H yielded an abundance fitness of -0.008 ± 0.12.
Variant K21Q has an abundance fitness of -0.106 ± 0.13.
Variant K21T has an abundance fitness of -0.949 ± 0.17.
Work on D36R yielded an abundance fitness of -0.255 ± 0.084.
Variant D36I has an abundance fitness of -0.915 ± 0.18.
In the case of D36W, the abundance fitness is reported as -0.37 ± 0.11.
Variant D36A has an abundance fitness of -0.455 ± 0.11.
In the case of D36P, the abundance fitness is reported as -0.909 ± 0.18.
D36S gave an abundance fitness of -0.079 ± 0.085.
In the case of D36V, the abundance fitness is reported as -0.833 ± 0.14.
For D36M, the abundance fitness was -0.372 ± 0.12.
With D36E the abundance fitness was -0.102 ± 0.13.
With D36G the abundance fitness was -0.299 ± 0.1.
Variant D24K has an abundance fitness of -0.461 ± 0.14.
Variant D24T has an abundance fitness of -0.309 ± 0.1.
For D24V, the abundance fitness was -0.558 ± 0.1.
With D24I the abundance fitness was -0.725 ± 0.16.
In the case of D24F, the abundance fitness is reported as -0.423 ± 0.14.
For D24H, the abundance fitness was -0.142 ± 0.16.
Variant D24W has an abundance fitness of -0.353 ± 0.13.
In the case of Q29H, the abundance fitness is reported as -0.268 ± 0.17.
Q29I gave an abundance fitness of -1.17 ± 0.27.
With Q29N the abundance fitness was -0.48 ± 0.16.
With Q29G the abundance fitness was -0.608 ± 0.12.
Work on Q29Y yielded an abundance fitness of -0.493 ± 0.19.
Variant Q29F has an abundance fitness of -0.657 ± 0.14.
Q29D gave an abundance fitness of -0.345 ± 0.16.
Q29L gave an abundance fitness of -0.239 ± 0.081.
R23I gave an abundance fitness of -0.161 ± 0.12.
R23E showed an abundance fitness of -0.279 ± 0.16.
Work on R23T yielded an abundance fitness of -0.189 ± 0.12.
With R23M the abundance fitness was -0.265 ± 0.13.
L19F showed an abundance fitness of -0.518 ± 0.21.
In the case of L19P, the abundance fitness is reported as -0.74 ± 0.24.
L19Y showed an abundance fitness of -0.282 ± 0.26.
S9G showed an abundance fitness of -0.553 ± 0.098.
Variant S9Y has an abundance fitness of -0.177 ± 0.11.
For S9Q, the abundance fitness was -0.095 ± 0.12.
Work on S9M yielded an abundance fitness of -0.105 ± 0.12.
In the case of S9C, the abundance fitness is reported as -0.062 ± 0.11.
For S9L, the abundance fitness was -0.158 ± 0.092.
With S9I the abundance fitness was -0.021 ± 0.11.
S9H showed an abundance fitness of -0.066 ± 0.11.
Variant S9A has an abundance fitness of -0.398 ± 0.16.
In the case of S9D, the abundance fitness is reported as -0.341 ± 0.14.
For H52K, the abundance fitness was 0.088 ± 0.18.
Work on H52D yielded an abundance fitness of -0.177 ± 0.15.
For H52I, the abundance fitness was -0.29 ± 0.15.
Variant H52R has an abundance fitness of 0.058 ± 0.08.
Work on H52E yielded an abundance fitness of 0.139 ± 0.16.
N7E gave an abundance fitness of -0.317 ± 0.17.
Variant N7M has an abundance fitness of -0.529 ± 0.12.
N7Y showed an abundance fitness of -0.449 ± 0.09.
For N7L, the abundance fitness was -0.438 ± 0.076.
N7H gave an abundance fitness of -0.26 ± 0.085.
N7G showed an abundance fitness of -0.356 ± 0.12.
With N7C the abundance fitness was -0.45 ± 0.11.
With N7F the abundance fitness was -0.568 ± 0.089.
With N7K the abundance fitness was -0.07 ± 0.14.
With D43K the abundance fitness was -0.456 ± 0.14.
D43I gave an abundance fitness of -0.862 ± 0.25.
In the case of D43N, the abundance fitness is reported as -0.161 ± 0.12.
With D43A the abundance fitness was -0.205 ± 0.081.
In the case of D43G, the abundance fitness is reported as -0.147 ± 0.092.
With D43T the abundance fitness was -0.367 ± 0.12.
Work on D43L yielded an abundance fitness of -0.423 ± 0.084.
With V10C the abundance fitness was -0.562 ± 0.12.
V10S showed an abundance fitness of -0.47 ± 0.089.
Work on V10D yielded an abundance fitness of -0.682 ± 0.15.
Work on V10I yielded an abundance fitness of -0.286 ± 0.097.
Work on V10P yielded an abundance fitness of -0.571 ± 0.12.
In the case of V10Y, the abundance fitness is reported as 0.115 ± 0.12.
I20R gave an abundance fitness of -0.722 ± 0.092.
For I20T, the abundance fitness was -0.885 ± 0.12.
In the case of I20S, the abundance fitness is reported as -0.778 ± 0.092.
With I20E the abundance fitness was -0.842 ± 0.31.
Variant I20M has an abundance fitness of -0.612 ± 0.14.
Variant I20N has an abundance fitness of -0.838 ± 0.15.
In the case of I20A, the abundance fitness is reported as -0.921 ± 0.1.
L25P showed an abundance fitness of -0.398 ± 0.12.
In the case of L25F, the abundance fitness is reported as -0.254 ± 0.12.
Work on L25M yielded an abundance fitness of 0.096 ± 0.12.
With L25H the abundance fitness was -0.195 ± 0.13.
Variant L25Q has an abundance fitness of -0.045 ± 0.12.
In the case of L25R, the abundance fitness is reported as 0.059 ± 0.09.
Work on E35A yielded an abundance fitness of -0.141 ± 0.11.
E35Q gave an abundance fitness of -0.391 ± 0.12.
E35I gave an abundance fitness of -0.765 ± 0.21.
In the case of E35P, the abundance fitness is reported as -0.874 ± 0.18.
With E35F the abundance fitness was -0.934 ± 0.21.
Work on E35C yielded an abundance fitness of -0.717 ± 0.16.
E35K showed an abundance fitness of -0.844 ± 0.17.
In the case of E35D, the abundance fitness is reported as -0.332 ± 0.18.
Work on E35H yielded an abundance fitness of -0.769 ± 0.24.
With I39F the abundance fitness was 0.139 ± 0.15.
With I39R the abundance fitness was -0.756 ± 0.098.
I39W gave an abundance fitness of -0.818 ± 0.13.
In the case of I39S, the abundance fitness is reported as -0.745 ± 0.11.
Variant I39D has an abundance fitness of -0.992 ± 0.21.
With I39L the abundance fitness was 0.026 ± 0.089.
H3K showed an abundance fitness of -0.56 ± 0.16.
H3C gave an abundance fitness of -0.094 ± 0.13.
In the case of H3V, the abundance fitness is reported as -0.629 ± 0.12.
H3D showed an abundance fitness of 0.235 ± 0.15.
H3T gave an abundance fitness of -0.282 ± 0.12.
H3A gave an abundance fitness of -0.086 ± 0.096.
G14Q gave an abundance fitness of -0.714 ± 0.16.
Work on G14W yielded an abundance fitness of -0.726 ± 0.18.
With G14A the abundance fitness was -0.919 ± 0.13.
G14F showed an abundance fitness of -0.716 ± 0.11.
In the case of G14P, the abundance fitness is reported as -0.714 ± 0.11.
Work on G14C yielded an abundance fitness of -0.785 ± 0.12.
S31E showed an abundance fitness of -0.784 ± 0.16.
S31Y showed an abundance fitness of -0.711 ± 0.13.
S31T gave an abundance fitness of 0.067 ± 0.09.
For S31Q, the abundance fitness was -0.646 ± 0.14.
For S31M, the abundance fitness was -1.01 ± 0.17.
Work on W32Y yielded an abundance fitness of -0.909 ± 0.17.
Variant W32K has an abundance fitness of -1.01 ± 0.19.
With W32L the abundance fitness was -0.732 ± 0.11.
W32I showed an abundance fitness of -0.71 ± 0.14.
W32H showed an abundance fitness of -0.788 ± 0.15.
With W32V the abundance fitness was -0.732 ± 0.11.
For W32D, the abundance fitness was -0.812 ± 0.18.
In the case of Y18Q, the abundance fitness is reported as -0.962 ± 0.2.
Y18V gave an abundance fitness of -0.753 ± 0.11.
For Y18G, the abundance fitness was -0.798 ± 0.14.
Y18K gave an abundance fitness of -0.838 ± 0.17.
In the case of Y18W, the abundance fitness is reported as -0.787 ± 0.17.
Y18M gave an abundance fitness of -0.957 ± 0.19.
E33Q gave an abundance fitness of -0.152 ± 0.11.
Variant E33K has an abundance fitness of -0.072 ± 0.13.
E33L showed an abundance fitness of -0.164 ± 0.084.
Variant E33H has an abundance fitness of -0.266 ± 0.16.
Work on E33D yielded an abundance fitness of -0.947 ± 0.24.
Work on A30H yielded an abundance fitness of -0.645 ± 0.28.
In the case of A30N, the abundance fitness is reported as -0.347 ± 0.25.
Work on A30R yielded an abundance fitness of -0.401 ± 0.16.
Work on A30V yielded an abundance fitness of -0.541 ± 0.28.
Work on A30I yielded an abundance fitness of 0.111 ± 0.27.
A30G showed an abundance fitness of -0.977 ± 0.44.
With R4L the abundance fitness was -0.221 ± 0.09.
Work on R4E yielded an abundance fitness of 0.058 ± 0.14.
R4S showed an abundance fitness of -0.117 ± 0.087.
R4N showed an abundance fitness of -0.331 ± 0.15.
In the case of R4P, the abundance fitness is reported as -0.788 ± 0.14.
R4V gave an abundance fitness of -0.371 ± 0.11.
R4A showed an abundance fitness of -0.535 ± 0.15.
Q47N showed an abundance fitness of 0.087 ± 0.11.
Q47L showed an abundance fitness of -0.374 ± 0.094.
Q47G gave an abundance fitness of -0.483 ± 0.088.
With Q47I the abundance fitness was 0.132 ± 0.12.
With Q47K the abundance fitness was 0.239 ± 0.12.
Variant Q47C has an abundance fitness of -0.423 ± 0.096.
Variant Q47E has an abundance fitness of -0.052 ± 0.11.
For Q47A, the abundance fitness was -0.114 ± 0.1.
With Q47M the abundance fitness was -0.452 ± 0.14.
